Target: T1, Patched (Ptc) (Drosophila, UniProt P18502 1-1286)
T1 construct: whole, on cells; Endogenous protein in vivo
T1 sequence (looked up): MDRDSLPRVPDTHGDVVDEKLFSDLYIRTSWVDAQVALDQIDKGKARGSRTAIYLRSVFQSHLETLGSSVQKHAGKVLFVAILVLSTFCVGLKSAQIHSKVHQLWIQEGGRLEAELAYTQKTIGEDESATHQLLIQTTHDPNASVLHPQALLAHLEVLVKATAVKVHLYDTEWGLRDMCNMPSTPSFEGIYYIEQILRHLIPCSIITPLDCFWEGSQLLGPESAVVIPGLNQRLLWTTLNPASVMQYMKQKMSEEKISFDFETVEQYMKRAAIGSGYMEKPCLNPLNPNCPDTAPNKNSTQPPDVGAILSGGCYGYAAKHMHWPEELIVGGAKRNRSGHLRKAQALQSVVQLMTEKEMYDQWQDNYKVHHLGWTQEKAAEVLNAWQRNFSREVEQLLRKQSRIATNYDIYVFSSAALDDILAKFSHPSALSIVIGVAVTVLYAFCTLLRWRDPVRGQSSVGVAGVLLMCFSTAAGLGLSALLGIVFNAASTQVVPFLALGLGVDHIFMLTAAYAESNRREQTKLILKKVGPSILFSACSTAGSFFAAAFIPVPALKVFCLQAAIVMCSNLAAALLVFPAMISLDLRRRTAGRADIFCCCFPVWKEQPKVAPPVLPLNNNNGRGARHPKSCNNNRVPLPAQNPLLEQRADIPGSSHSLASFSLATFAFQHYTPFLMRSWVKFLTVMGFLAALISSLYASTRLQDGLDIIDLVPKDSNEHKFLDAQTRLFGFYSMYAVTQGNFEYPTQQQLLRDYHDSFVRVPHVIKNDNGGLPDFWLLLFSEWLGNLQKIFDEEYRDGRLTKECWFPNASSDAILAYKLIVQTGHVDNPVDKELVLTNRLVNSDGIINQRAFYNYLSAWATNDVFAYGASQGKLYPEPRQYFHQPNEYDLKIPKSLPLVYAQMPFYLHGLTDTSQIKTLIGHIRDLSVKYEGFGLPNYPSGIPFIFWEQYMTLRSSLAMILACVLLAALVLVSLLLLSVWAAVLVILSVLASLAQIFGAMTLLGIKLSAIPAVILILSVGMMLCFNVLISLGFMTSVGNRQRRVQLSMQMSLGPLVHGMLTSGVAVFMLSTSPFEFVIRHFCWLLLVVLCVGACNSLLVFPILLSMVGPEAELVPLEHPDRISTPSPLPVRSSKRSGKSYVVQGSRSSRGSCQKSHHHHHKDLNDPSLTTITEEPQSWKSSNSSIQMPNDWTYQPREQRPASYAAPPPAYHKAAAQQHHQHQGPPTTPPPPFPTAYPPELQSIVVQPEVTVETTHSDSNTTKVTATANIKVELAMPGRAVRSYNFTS
Assay: in vivo immunostaining of wing imaginal discs (punctuate staining in anterior cells); hh-N^HA under en-Gal4 in hh ts2/ts2 animals at the non-permissive temperature
Text: Expression of Hh-Nu in P cells of the wing imaginal disc results in dpp-lacZ expression in the entire A compartment of the disc, and a consequent dramatic enlargement of the A compartment. Thus Hh-Nu appears to have a range of action at least five fold larger than that of wild-type Hh. However, since this and previous experiments have been performed in the presence of endogenous Hh, it could not be ruled out that the observed extension of Hh activity depends on, or is even mediated by, endogenous Hh-Np whose range might be expanded in the presence of Hh-Nu. To address this, we created a situation where Hh-Nu is the sole source of Hh in imaginal discs by expressing hh-N^HA in P cells under en-Ga14 in hh^{ts2/ts2} animals that were shifted to the non-permissive temperature during early larval stages. […] Thus Hh-Nu alone is able to associate with Ptc and signal in vivo. The cholesterol anchor of Hh appears to be required for the sequestration of Hh by Ptc, since untethered Hh is seemingly unrestricted in its range. We cannot currently rule out the possibility that Hh-Nu is also, at least partially, sequestered by Ptc but that extracellular Hh-Nu levels are abnormally high and saturate the capacity of Ptc.
hh-temperature sensitive animals were generated using the hh^ts2 allel (Ma et al., 1993) balanced over the TM6b[Tb]balancer. […]

binding result: binds
B1: Hh-Nu (cholesterol-free N-terminal portion of Drosophila Hedgehog, product of the hh-N^HA transgene) (ligand, not shown: small tags and cut ends)
chain: not shown
modifications: no C-terminal cholesterol (cholesterol-free)
notes: Expressed in P cells of wing imaginal discs under en-Gal4 in hh ts2/ts2 animals; also called unmodified Hh-Nu; untethered Hh
